The values that follow come from paper PMC4626632, “The structure of Medicago truncatula δ^1-pyrroline-5-carboxylate reductase provides new insights into regulation of proline biosynthesis in plants” (Frontiers in Plant Science, 2015).

As usually defined, the Ki is a measure of affinity in units of concentration, obtained from inhibition or displacement. Low readings indicate a stronger hold on the target, high ones a looser hold on the target. In general, Km refers to the substrate concentration at which the rate is half of its maximum. The kcat is the number of substrate molecules converted per active site and unit of time at saturation. The term kcat/Km denotes the turnover number divided by the Michaelis constant. What is called stoichiometry N is a count of units in the complex or per binding partner.

The target in data set [1] is T1, δ^1-pyrroline-5-carboxylate reductase (MtP5CR) (Medicago truncatula, UniProt G7KRM5).
T1 construct: gene MTR_7g090160; MtP5CR_1, His6-tag cleaved; homodecamer
Briefly: X-ray crystal structure of the cocrystallized complex ([…] Å). Type of data set: binding.

Data set [2] concerns the target T1, δ^1-pyrroline-5-carboxylate reductase (MtP5CR). Description: NAD(P)H oxidation assay at […] nm, kinetic analysis of inhibition. In kind it is biochemical.
Substrate in data set [3]: O=C(O)C1CCC=N1
Briefly: steady-state kinetics of the purified enzyme, KM(app). In kind it is biochemical, Medicago truncatula. The settings on record: NADPH C-terminal domain contains the P5C binding site.

Substrate in data set [4]: NC(=O)C1=CN([C@@H]2O[C@H](COP(=O)(O)OP(=O)(O)OC[C@H]3O[C@@H](n4cnc5c(N)ncnc54)[C@H](OP(=O)(O)O)[C@@H]3O)[C@@H](O)[C@H]2O)C=CC1
Briefly: purified protein. The note with it: varied: cofactor.

Substrate in data set [5]: NC(=O)C1=CN([C@@H]2O[C@H](COP(=O)(O)OP(=O)(O)OC[C@H]3O[C@@H](n4cnc5c(N)ncnc54)[C@H](O)[C@@H]3O)[C@@H](O)[C@H]2O)C=CC1
Briefly: purified protein. The note with it: varied: cofactor.

Data set [6] deals with the molecule itself. Description: crystal structure; space group P1, one decamer in the asymmetric unit; 100 mM HEPES/MOPS pH 7.5, 10% PEG 4000, 20% glycerol, 30 mM MgCl2, 30 mM CaCl2, 19°C; unliganded and with NAD+, NADP+ or L-proline.

As for `NC(=O)c1ccc[n+]([C@@H]2O[C@H](COP(=O)([O-])OP(=O)(O)OC[C@H]3O[C@@H](n4cnc5c(N)ncnc54)[C@H](O)[C@@H]3O)[C@@H](O)[C@H]2O)c1` [NAD^+], in data set [1], the “X-ray crystal structure of the cocrystallized complex (1.85 Å)” value is “In the case of NAD^+ (Figure 8A), the adenine N1 atom interacts with Nδ of Asn65”.
Turning to `O=S(=O)(O)CCN1CCN(CCO)CC1` [HEPES, 2-[4-(2-hydroxyethyl)piperazin-1-yl]ethanesulfonic acid], in data set [2], the affinity corresponds to a Ki of 1.83 ± 0.08 mM.

B1: Medicago truncatula δ1-pyrroline-5-carboxylate reductase (enzyme, UniProt G7KRM5 1-274, looked up)
chain: MEIIPIPADSYTLGFIGAGKMAESIAKGAVRSGVLSPSRIKTAIHSNPARRTAFESIGITVLSSNDDVVRDSNVVVFSVKPQLLKDVVLKLKPLLTKDKLLVSVAAGIKMKDLQEWAGHERFIRVMPNTAATVGEAASVMSLGGAATEEDANLISQLFGSIGKIWKADDKYFDAITGLSGSGPAYIYLAIEALADGGVAAGLPRDLALSLASQTVLGAASMATQSGKHPGQLKDDVTSPGGTTIAGVHELEKAGFRGILMNAVVAAAKRSQELS
notes: P5C reductase (EC 1.5.1.2) of Medicago truncatula, isoform MtP5CR_1 (without the 29-residue insert of MtP5CR_2, A2Q2Y7); cDNA from leaf RNA; printed primers run from the ATG to the stop codon; monomer 28.5 kDa; Vector pMCSG68: His6 tag and TEV site at the N-terminus, cut off with TEV protease; Homodecamer (pentamer of dimers); also called MtP5CR; MtP5CR_1; source: E. coli BL21 Gold, purified …
Consider B1, for which, in data set [3], the Km was determined as 20 ± 2 µM. Also, in the data set “purified protein [4]”, the Km turned out to be 39 ± 3 µM, the Vmax was 36.1 ± 0.7 μkat (mg protein)^−1, the kcat is 1113 s⁻¹ and the kcat/Km is 2.85e+07 M⁻¹ s⁻¹. In the data set “purified protein [5]”, the Km was 468 ± 22 µM, the Vmax was 92.4 ± 2.1 μkat (mg protein)^−1, the kcat was found to be 2972 s⁻¹ and the kcat/Km was determined as 6.35e+06 M⁻¹ s⁻¹. For the same molecule, the “stoichiometry N” value in data set [6] turned out to be 10.
